Source: paper PMC8318587, “Structure-guided microbial targeting of antistaphylococcal prodrugs” (eLife, 2021)
Values after ≈ are worked out from the molar mass of the structure shown. Like-named read-outs stand apart in the source and are kept apart here.

How the values were obtained:
S. aureus Newman [1] = experiment: Minimum inhibitory concentration (MIC) in liquid LB media; format: cell-based; conditions: Staphylococcus aureus
Procedure: (§1) Antibiotic resistance frequency was determined on LB agar plates containing 4× and 10×, the minimum inhibitory concentrations of several antibiotics. MICs were determined for S. aureus Newman in liquid LB media. […] Briefly, S. aureus Newman was grown in LB media to late log-phase and centrifuged at 4000 × g for 15 min before resuspension at an OD600 nm of 30 (~1E11 CFU/mL) in LB media. One hundred microliter aliquots of concentrated S. aureus was plated in duplicate on selective and non-selective plates and incubated at 37°C. After 24 hr, mutation rates were calculated by counting the number of colonies present and dividing by the total number of colonies plated. Experiments were performed in triplicate.

S. aureus Newman [2] = format: cell-based, Staphylococcus aureus; conditions: for Mutational frequency at 4× MIC / Mutational frequency at 10× MIC: LB agar, 24 hr, mean ± SD
Procedure: as §1

[3] = substrate: CC(C)OCC(=O)OCOc1ccc2c(c1)Oc1cc(OCOC(=O)COC(C)C)ccc1C21OC(=O)c2ccccc21; experiment: Esterase substrate specificity, fluorogenic SAR library kinetics; format: biochemical, Staphylococcus aureus; conditions: other: SaFrmB 15 µg/mL, pH 7.5, 37°C
Procedure: (§2) Kinetic measurements were performed according to [White et al., 2018] with minor variation. Lyophilized human and mouse sera were resuspended according to manufacturer instructions in highly pure, filtered water at protein concentrations of 85 mg/mL and 70 mg/mL, respectively. One milliliter of resuspended serum was added to a 24 mL mastermix for a final concentration of 31.25 mM Tris pH 7.5, 312.5 mM NaCl, 1.25 mM MgCl2, 12.5% glycerol, and 3.4 mg/mL or 2.8 mg/mL protein for human and mouse serum, respectively. For purified proteins, 5 mL of a 75 µg/mL stock was added to yield a 20 mL mastermix containing 31.25 mM Tris pH 7.5, 312.5 mM NaCl, 1.25 mM MgCl2, 12.5% glycerol, and 18.75 µg/mL protein. Mastermix was stored on ice when not in use. Twenty microliters of mastermix was transferred to a black, 96-well half area microplate (Corning, CLS3993) and prewarmed at 37°C. Fluorogenic substrates were prepared as 10 mM stock solutions in 100% DMSO and were diluted in water to a starting concentration of 500 µM. Enzyme catalyzed substrate hydrolysis was initiated by addition of 5 µL substrate dilution in technical duplicate to the prewarmed serum or protein solution. Final assay concentrations were as follows: 25 mM Tris pH 7.5, 250 mM NaCl, 1 mM MgCl2, 10% glycerol, and protein at a concentration of 2.72 mg/mL (human serum), 2.24 mg/mL (mouse serum), or 15 µg/mL (FrmB, GloB). The resulting change in fluorescence (λex = 485 nm, λem = 520 nm) was followed for 15 min at 37°C, collecting data every 30 s on a FLUOstar Omega microplate reader (BMG Labtech). Fluorescence measurements were converted to molar concentrations using a fluorescein standard curve (2.5 nmol–0.6 pmol). The initial rates of reaction were measured three independent times with two technical replicates per measurement and fit to a line using GraphPad Prism (GraphPad Software, La Jolla, CA). Initial rates of reaction were plotted versus the concentration of substrate and fit to a standard Michaelis–Menten equation (v = Vmax[S]/(Km + [S])), yielding estimates of Vmax and Km. Values for kcat and kcat/Km were calculated based on amount of enzyme added when purified enzymes were used.

[4] = substrate: CC(C)SCC(=O)OCOc1ccc2c(c1)Oc1cc(OCOC(=O)CSC(C)C)ccc1C21OC(=O)c2ccccc21; experiment: as above; format: biochemical, Staphylococcus aureus; conditions: other: SaFrmB 15 µg/mL, pH 7.5, 37°C
Procedure: as §2

[5] = substrate: CCCC(=O)OCOc1ccc2c(c1)Oc1cc(OCOC(=O)CCC)ccc1C21OC(=O)c2ccccc21; experiment: as above; format: biochemical, Staphylococcus aureus; conditions: other: SaFrmB 15 µg/mL, pH 7.5, 37°C
Procedure: as §2

[6] = substrate: CCCCC(=O)OCOc1ccc2c(c1)Oc1cc(OCOC(=O)CCCC)ccc1C21OC(=O)c2ccccc21; experiment: as above; format: biochemical, Staphylococcus aureus; conditions: other: SaFrmB 15 µg/mL, pH 7.5, 37°C
Procedure: as §2

[7] = substrate: CCCOCC(=O)OCOc1ccc2c(c1)Oc1cc(OCOC(=O)COCCC)ccc1C21OC(=O)c2ccccc21; experiment: as above; format: biochemical, Staphylococcus aureus; conditions: other: SaFrmB 15 µg/mL, pH 7.5, 37°C
Procedure: as §2

[8] = substrate: CCOC(C)C(=O)OCOc1ccc2c(c1)Oc1cc(OCOC(=O)C(C)OCC)ccc1C21OC(=O)c2ccccc21; experiment: as above; format: biochemical, Staphylococcus aureus; conditions: other: SaFrmB 15 µg/mL, pH 7.5, 37°C
Procedure: as §2

[9] = substrate: CCOCC(=O)OCOc1ccc2c(c1)Oc1cc(OCOC(=O)COCC)ccc1C21OC(=O)c2ccccc21; experiment: as above; format: biochemical, Staphylococcus aureus; conditions: other: SaFrmB 15 µg/mL, pH 7.5, 37°C
Procedure: as §2

[10] = substrate: CCSCCC(=O)OCOc1ccc2c(c1)Oc1cc(OCOC(=O)CCSCC)ccc1C21OC(=O)c2ccccc21; experiment: as above; format: biochemical, Staphylococcus aureus; conditions: other: SaFrmB 15 µg/mL, pH 7.5, 37°C
Procedure: as §2

[11] = substrate: COC(C)(C)C(=O)OCOc1ccc2c(c1)Oc1cc(OCOC(=O)C(C)(C)OC)ccc1C21OC(=O)c2ccccc21; experiment: as above; format: biochemical, Staphylococcus aureus; conditions: other: SaFrmB 15 µg/mL, pH 7.5, 37°C
Procedure: as §2

[12] = substrate: COC(C)C(=O)OCOc1ccc2c(c1)Oc1cc(OCOC(=O)C(C)OC)ccc1C21OC(=O)c2ccccc21; experiment: as above; format: biochemical, Staphylococcus aureus; conditions: other: SaFrmB 15 µg/mL, pH 7.5, 37°C
Procedure: as §2

[13] = substrate: COCC(=O)OCOc1ccc2c(c1)Oc1cc(OCOC(=O)COC)ccc1C21OC(=O)c2ccccc21; experiment: as above; format: biochemical, Staphylococcus aureus; conditions: other: SaFrmB 15 µg/mL, pH 7.5, 37°C
Procedure: as §2

[14] = substrate: COCCC(=O)OCOc1ccc2c(c1)Oc1cc(OCOC(=O)CCOC)ccc1C21OC(=O)c2ccccc21; experiment: as above; format: biochemical, Staphylococcus aureus; conditions: other: SaFrmB 15 µg/mL, pH 7.5, 37°C
Procedure: as §2

[15] = substrate: CSCCC(=O)OCOc1ccc2c(c1)Oc1cc(OCOC(=O)CCSC)ccc1C21OC(=O)c2ccccc21; experiment: as above; format: biochemical, Staphylococcus aureus; conditions: other: SaFrmB 15 µg/mL, pH 7.5, 37°C
Procedure: as §2

[16] = S. aureus Newman, liquid LB media, read-out: MIC

## CCC[C@@H]1C[C@@H](C(=O)N[C@@H]([C@H]2O[C@H](SC)[C@H](O)[C@@H](O)[C@H]2O)[C@H](C)Cl)N(C)C1 [Clindamycin]
S. aureus Newman [1]; [16]
  MIC: 0.25 µg/mL (≈ 0.588 µM)
S. aureus Newman [2]
  Mutational frequency at 4× MIC: <1 E-10
  Mutational frequency at 10× MIC: <1 E-10

## CCOc1ccc2ccccc2c1C(=O)N[C@@H]1C(=O)N2[C@@H]1SC(C)(C)[C@@H]2C(=O)O [Nafcillin]
S. aureus Newman [1]; [16]
  MIC: 0.5 µg/mL (≈ 1.21 µM)
S. aureus Newman [2]
  Mutational frequency at 4× MIC: <1 E-10
  Mutational frequency at 10× MIC: <1 E-10

## CN[C@H](CC(C)C)C(=O)N[C@H]1C(=O)N[C@@H](CC(N)=O)C(=O)N[C@H]2C(=O)N[C@H]3C(=O)N[C@H](C(=O)N[C@H](C(=O)O)c4cc(O)cc(O)c4-c4cc3ccc4O)[C@H](O)c3ccc(c(Cl)c3)Oc3cc2cc(c3O[C@@H]2O[C@H](CO)[C@@H](O)[C@H](O)[C@H]2O[C@H]2C[C@](C)(N)[C@H](O)[C@H](C)O2)Oc2ccc(cc2Cl)[C@H]1O [Vancomycin]
S. aureus Newman [1]; NEWMAN
  MIC: 2 µg/mL (≈ 1.38 µM)
S. aureus Newman [2]
  Mutational frequency at 4× MIC: <1 E-10
  Mutational frequency at 10× MIC: <1 E-10

## CC(=O)NC[C@H]1CN(c2ccc(N3CCOCC3)c(F)c2)C(=O)O1 [Linezolid]
S. aureus Newman [1]; [16]
  MIC: 1.67 µg/mL (≈ 4.95 µM)
S. aureus Newman [2]
  Mutational frequency at 4× MIC: <1 E-10
  Mutational frequency at 10× MIC: <1 E-10

## CO[C@H]1/C=C/O[C@@]2(C)Oc3c(C)c(O)c4c(O)c(c(/C=N/N5CCN(C)CC5)c(O)c4c3C2=O)NC(=O)/C(C)=C\C=C\[C@H](C)[C@H](O)[C@@H](C)[C@@H](O)[C@@H](C)[C@H](OC(C)=O)[C@@H]1C [Rifampicin]
S. aureus Newman [1]; [16]
  MIC: 0.0075 µg/mL (≈ 0.00911 µM)
S. aureus Newman [2]
  Mutational frequency at 4× MIC: 8.96 ± 0.20 E-08
  Mutational frequency at 10× MIC: 7.64 ± 2.10 E-08
S. aureus Newman [2]; at 4 and 10 times the MIC
  Spontaneous resistance frequency: ~ 8E-8

B1: SaFrmB (Staphylococcus aureus subsp. aureus str. Newman) (protein)
chain: MAYISLNYHSPTIGMHQNLTVILPEDQSFFNSDTTVKPLKTLMLLHGLSSDETTYMRYTSIERYANEHKLAVIMPNVDHSAYANMAYGHSYYDYILEVYDYVHQIFPLSKKRDDNFIAGHSMGGYGTIKFALTQGDKFAKAVPLSAVFEAQNLMDLEWNDFSKEAIIGNLSSVKGTEHDPYYLLDKAVAEDKQIPKLLIMCGKQDFLYQDNLDFIDYLSRINVPYQFEDGPGDHDYAYWDQAIKRAITWMVND
notes: made in house; host or cells: E. coli BL21 (DE3)
[3]
  Km: 9.17 µM
  Vmax: 0.597 pmol*min-1*μg protein-1
  kcat: 0.112 10-3 s-1
  kcat/Km: 12.3 M⁻¹ s⁻¹
[4]
  Km: 36.3 µM
  Vmax: 0.629 pmol*min-1*μg protein-1
  kcat: 0.118 10-3 s-1
  kcat/Km: 3.27 M⁻¹ s⁻¹
[5]
  Km: 30.4 µM
  Vmax: 0.149 pmol*min-1*μg protein-1
  kcat: 0.0280 10-3 s-1
  kcat/Km: 0.921 M⁻¹ s⁻¹
[6]
  Km: 26.5 µM
  Vmax: 0.0637 pmol*min-1*μg protein-1
  kcat: 0.0120 10-3 s-1
  kcat/Km: 0.452 M⁻¹ s⁻¹
[7]
  Km: 9.95 µM
  Vmax: 0.621 pmol*min-1*μg protein-1
  kcat: 0.117 10-3 s-1
  kcat/Km: 11.7 M⁻¹ s⁻¹
[8]
  Km: 18.3 µM
  Vmax: 0.163 pmol*min-1*μg protein-1
  kcat: 0.0307 10-3 s-1
  kcat/Km: 1.68 M⁻¹ s⁻¹
[9]
  Km: 13.9 µM
  Vmax: 2.04 pmol*min-1*μg protein-1
  kcat: 0.385 10-3 s-1
  kcat/Km: 27.7 M⁻¹ s⁻¹
[10]
  Km: 11.1 µM
  Vmax: 0.0295 pmol*min-1*μg protein-1
  kcat: 0.00556 10-3 s-1
  kcat/Km: 0.500 M⁻¹ s⁻¹
[11]
  Km: 74.2 µM
  Vmax: 0.163 pmol*min-1*μg protein-1
  kcat: 0.0307 10-3 s-1
  kcat/Km: 0.414 M⁻¹ s⁻¹
[12]
  Km: 107 µM
  Vmax: 2.57 pmol*min-1*μg protein-1
  kcat: 0.485 10-3 s-1
  kcat/Km: 4.52 M⁻¹ s⁻¹
[13]
  Km: 30.3 µM
  Vmax: 5.98 pmol*min-1*μg protein-1
  kcat: 1.13 10-3 s-1
  kcat/Km: 37.2 M⁻¹ s⁻¹
[14]
  Km: 30.0 µM
  Vmax: 0.183 pmol*min-1*μg protein-1
  kcat: 0.0345 10-3 s-1
  kcat/Km: 1.15 M⁻¹ s⁻¹
[15]
  Km: 52.7 µM
  Vmax: 0.505 pmol*min-1*μg protein-1
  kcat: 0.0950 10-3 s-1
  kcat/Km: 1.80 M⁻¹ s⁻¹
